From article PMC8810680 (Nature chemical biology, 2021)
Values joined by “and” are separate entries in the source; they are usually repeats but may differ in a detail not shown here. Identical values can stand only once. Each block holds one compound with its values, some of them ahead of it.

Legend:
[1] = biological target: GudB6-GltA2B2 (Bacillus subtilis, UniProt O34399+P39812); assay: cryo-EM structure, […] A; type: binding; settings: co-purified
[2] = biological target: glutamate dehydrogenase GudB (untagged, in B. subtilis NCIB 3610) (B. subtilis (endogenous in strain NCIB 3610)); assay: cryo-EM structure
Sequence of glutamate dehydrogenase GudB (untagged, in B. subtilis NCIB 3610) (B. subtilis (endogenous in strain NCIB 3610)) (P50735 whole entry): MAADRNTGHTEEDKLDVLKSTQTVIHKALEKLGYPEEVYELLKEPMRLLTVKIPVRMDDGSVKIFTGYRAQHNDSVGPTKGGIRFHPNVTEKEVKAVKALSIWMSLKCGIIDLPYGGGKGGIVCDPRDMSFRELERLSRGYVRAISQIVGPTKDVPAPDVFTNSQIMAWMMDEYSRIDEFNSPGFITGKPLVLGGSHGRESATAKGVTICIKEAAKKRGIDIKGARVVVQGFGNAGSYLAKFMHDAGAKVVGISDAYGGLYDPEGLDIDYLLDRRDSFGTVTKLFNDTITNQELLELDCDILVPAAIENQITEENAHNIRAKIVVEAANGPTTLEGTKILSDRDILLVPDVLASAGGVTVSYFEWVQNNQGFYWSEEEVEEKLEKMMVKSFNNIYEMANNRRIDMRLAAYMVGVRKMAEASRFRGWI

[3] = biological target: TwinStrep-tagged GltB (B. subtilis) (UniProt O34399); assay: mass photometry
Sequence of TwinStrep-tagged GltB (B. subtilis) (O34399 whole entry): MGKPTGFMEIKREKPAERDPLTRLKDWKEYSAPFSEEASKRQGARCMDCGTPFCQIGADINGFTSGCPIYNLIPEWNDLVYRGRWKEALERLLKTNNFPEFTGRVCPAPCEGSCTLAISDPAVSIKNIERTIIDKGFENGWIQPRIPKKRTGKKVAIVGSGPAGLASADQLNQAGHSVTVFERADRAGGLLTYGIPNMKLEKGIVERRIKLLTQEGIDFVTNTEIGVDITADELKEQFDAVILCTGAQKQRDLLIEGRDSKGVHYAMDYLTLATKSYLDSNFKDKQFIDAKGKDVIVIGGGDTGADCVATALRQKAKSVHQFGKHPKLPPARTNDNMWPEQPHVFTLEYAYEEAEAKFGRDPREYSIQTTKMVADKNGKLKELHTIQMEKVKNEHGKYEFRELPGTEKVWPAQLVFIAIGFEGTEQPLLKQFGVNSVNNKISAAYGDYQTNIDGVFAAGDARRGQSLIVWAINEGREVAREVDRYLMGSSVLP

[4] = biological target: recombinant 6X His-tagged GudB (B. subtilis); assay: cryo-EM structure
Sequence of recombinant 6X His-tagged GudB (B. subtilis) (P50735 whole entry): as the sequence (P50735 whole entry) above

[5] = biological target: glutamate dehydrogenase GudB (untagged, in B. subtilis NCIB 3610) (B. subtilis (endogenous in strain NCIB 3610)); assay: native MS
[6] = biological target: recombinant 6X His-tagged GudB (B. subtilis); assay: native MS
[7] = biological target: recombinant Strep-tagged GudB (B. subtilis); assay: native MS

Sequence of GudB6-GltA2B2 (P39812 22-1520): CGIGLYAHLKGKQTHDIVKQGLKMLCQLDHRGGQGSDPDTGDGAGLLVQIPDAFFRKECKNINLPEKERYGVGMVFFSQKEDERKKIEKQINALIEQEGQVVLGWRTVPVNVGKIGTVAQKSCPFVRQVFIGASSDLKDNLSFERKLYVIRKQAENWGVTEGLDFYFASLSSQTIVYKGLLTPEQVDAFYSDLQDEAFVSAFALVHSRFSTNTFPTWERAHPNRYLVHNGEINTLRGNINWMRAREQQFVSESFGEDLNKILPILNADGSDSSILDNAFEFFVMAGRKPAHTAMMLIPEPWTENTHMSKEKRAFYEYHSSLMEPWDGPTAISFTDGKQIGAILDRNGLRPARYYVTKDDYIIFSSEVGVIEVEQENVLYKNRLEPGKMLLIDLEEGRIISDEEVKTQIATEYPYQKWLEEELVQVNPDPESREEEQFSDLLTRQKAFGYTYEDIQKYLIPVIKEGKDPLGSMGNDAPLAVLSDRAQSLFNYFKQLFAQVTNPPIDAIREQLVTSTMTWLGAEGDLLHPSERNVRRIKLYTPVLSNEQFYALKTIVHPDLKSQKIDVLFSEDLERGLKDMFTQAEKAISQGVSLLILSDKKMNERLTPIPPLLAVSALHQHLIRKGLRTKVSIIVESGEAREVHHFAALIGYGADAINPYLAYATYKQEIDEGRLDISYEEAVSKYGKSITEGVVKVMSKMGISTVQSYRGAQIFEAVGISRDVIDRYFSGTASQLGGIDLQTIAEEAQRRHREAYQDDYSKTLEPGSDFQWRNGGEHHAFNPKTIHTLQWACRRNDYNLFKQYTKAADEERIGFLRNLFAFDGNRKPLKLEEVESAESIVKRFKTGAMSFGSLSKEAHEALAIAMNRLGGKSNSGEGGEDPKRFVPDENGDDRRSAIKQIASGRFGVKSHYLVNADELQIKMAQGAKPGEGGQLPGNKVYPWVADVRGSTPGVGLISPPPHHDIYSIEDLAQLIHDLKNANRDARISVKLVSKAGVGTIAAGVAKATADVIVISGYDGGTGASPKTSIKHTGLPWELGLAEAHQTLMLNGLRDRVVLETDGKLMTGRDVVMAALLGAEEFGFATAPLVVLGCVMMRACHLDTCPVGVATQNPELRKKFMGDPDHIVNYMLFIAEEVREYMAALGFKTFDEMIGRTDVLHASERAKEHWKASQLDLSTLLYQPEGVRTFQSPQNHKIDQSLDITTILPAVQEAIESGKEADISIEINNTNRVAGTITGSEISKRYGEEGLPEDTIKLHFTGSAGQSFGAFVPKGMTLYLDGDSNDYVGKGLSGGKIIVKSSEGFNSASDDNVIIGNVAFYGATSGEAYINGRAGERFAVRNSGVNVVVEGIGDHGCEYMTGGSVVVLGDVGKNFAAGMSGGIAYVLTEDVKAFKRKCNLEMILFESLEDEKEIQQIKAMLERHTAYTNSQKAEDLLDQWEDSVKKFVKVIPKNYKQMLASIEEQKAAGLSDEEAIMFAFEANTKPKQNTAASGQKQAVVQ
Sequence of GudB6-GltA2B2 (O34399 whole entry): as the sequence (O34399 whole entry) above
Sequence of GudB6-GltA2B2 (A0A0C3GZC9 1-424 partner): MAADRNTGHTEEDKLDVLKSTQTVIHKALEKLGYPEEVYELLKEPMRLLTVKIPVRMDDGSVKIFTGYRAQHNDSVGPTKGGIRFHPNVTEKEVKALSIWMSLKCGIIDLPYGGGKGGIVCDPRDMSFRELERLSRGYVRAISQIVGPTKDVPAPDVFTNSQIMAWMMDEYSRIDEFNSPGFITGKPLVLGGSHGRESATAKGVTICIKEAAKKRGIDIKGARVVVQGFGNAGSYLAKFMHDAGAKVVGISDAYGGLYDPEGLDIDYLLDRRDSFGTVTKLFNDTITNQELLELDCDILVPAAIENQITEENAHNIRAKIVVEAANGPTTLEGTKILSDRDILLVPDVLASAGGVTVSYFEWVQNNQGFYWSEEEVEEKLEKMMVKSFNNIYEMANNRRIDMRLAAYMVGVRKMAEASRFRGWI
Sequence of recombinant Strep-tagged GudB (enzyme) (P50735 whole entry): as the sequence (P50735 whole entry) above
Sequence of glutamate dehydrogenase GudB (untagged, in B. subtilis NCIB 3610) (enzyme) (P50735 whole entry): as above
Sequence of recombinant 6X His-tagged GudB (enzyme) (P50735 whole entry): as above

Compound: [S]12[Fe]3[S]4[Fe]1[S]1[Fe]2[S]3[Fe]41 [4Fe-4S cluster]
cryo-EM structure, 2.4 A ([1]; two clusters, site in GltB): unambiguous assignment of two 4Fe-4S clusters in GltB

Compound: Cc1cc2nc3c(=O)[nH]c(=O)nc-3n(C[C@H](O)[C@H](O)[C@H](O)COP(=O)(O)OP(=O)(O)OC[C@H]3O[C@@H](n4cnc5c(N)ncnc54)[C@H](O)[C@@H]3O)c2cc1C [FAD]
cryo-EM structure, 2.4 A ([1]; listed among GltAB cofactors in the figure legend only): The co-factors in GltAB: FAD, two 4Fe-4S clusters (SF4), 3Fe-4S cluster (F3S) and FMN

cryo-EM structure, 2.4 A ([1]; site in GltA): a 3Fe-4S clusters and FMN in GltA
Compound: Cc1cc2nc3c(=O)[nH]c(=O)nc-3n(C[C@H](O)[C@H](O)[C@H](O)COP(=O)(O)O)c2cc1C [FMN]

stoichiometry N [2]: 6
Compound: glutamate dehydrogenase GudB (untagged, in B. subtilis NCIB 3610) (enzyme)

percent of counts as GltAB, no ligand [3]: 5 % of counts
percent of counts as GltAB, with AKG [3]: 12 % of counts
percent of counts as GltAB, with AKG and NADPH [3]: 16 % of counts
stoichiometry N (GltAB heterodimers per GudB hexamer) [2]: 6
stoichiometry N (GltAB heterodimers per GudB hexamer) [4]: 2 to 4
stoichiometry N (GltAB heterodimers per GudB hexamer) [5]: 6
stoichiometry N (GltAB heterodimers per GudB hexamer) [6]: 3 and 6
Compound: glutamate synthase subunit GltA (from UniProt P39812 1-1520) (enzyme)

stoichiometry N [4]: 6
Compound: recombinant 6X His-tagged GudB (enzyme)

stoichiometry N [7]: 6
Compound: recombinant Strep-tagged GudB (enzyme)
